Laboratory results reported in publication PMC12455949 (Journal of Virology, 2025).

Key:
COBRA HA J4 = COBRA HA J4 (COBRA J4, designed from influenza A …); experiment: BLI; conditions: both partners purified
COBRA HA TJ2 = COBRA HA TJ2 (COBRA TJ2, designed from influenza A …); experiment: BLI; conditions: both partners purified

B1: mAb TJ5-1 (antibody, V domains shown)
VH: EVQLVQSGAEVKKPGASVKVSCKASGYTFTGFYLHWVRQAPGQGLEWMGWINPHSGDTDFAQKFQGKVTMTRDTSSNTVYMDVNRLTSDDTAVYYCVKNDIVLGMGVWGQGTTVIVSS
VL: QSVLTQPPSVSGAPGQRVTISCTGSSSNIGAGYNVYWFQQLPPTAPKLLNYGDNNRPSGVPDRFSASKSGTSASLAITGLQAEDEAEYYCQSYDSSLNAYVFGTGTKVTVL
Kd (COBRA HA J4): 0.23 nM | koff (COBRA HA J4): 6.67e-05 s⁻¹ | kon (COBRA HA J4): 284000 M⁻¹ s⁻¹ | Kd (COBRA HA TJ2): 5.64 nM | koff (COBRA HA TJ2): 0.00348 s⁻¹ | kon (COBRA HA TJ2): 230000 M⁻¹ s⁻¹

B2: mAb TJ5-13 (antibody, V domains shown)
V domain 1: QVQLVQSGAEVKKPGSSVKVSCEASGDTFTTYSGINWVRQAPGQGLEWMGGVLPNFGSPNYAQRFQGRITITVDRSTSLVHMELTNLRSDDTAVYYCTETGAYNSVGYFPYFQFRGQGTLVSVSS
V domain 2: QSVLTQPPSVSGAPGQRVTISCTGSSSNIGADYDVHWYQQLPGTAPKLLIFGNNNRPSGVPDRFSGSKSGTSASLAITGLQAEDEADYYCQSFDKSLSGSFVFGTGTKVTGQ
Kd (COBRA HA J4): 0.26 nM | koff (COBRA HA J4): 3.06e-05 s⁻¹ | kon (COBRA HA J4): 120000 M⁻¹ s⁻¹ | Kd (COBRA HA TJ2): 0.05 nM | koff (COBRA HA TJ2): 8.68e-06 s⁻¹ | kon (COBRA HA TJ2): 159000 M⁻¹ s⁻¹

B3: mAb #1664 (antibody, V domains shown)
VH: EVQVMQSGAEARMTGATVKISCKASGYTFSDYFLHWVKQAPGKGLEWMGLVDVDNGEVRYAEKFQGRVTITADTSTETAYLEMTTVTSGDTAVYYCASTTPRGGNPSVYNYFFVDVWGKGTTVTVSS
VL: QPVLTQSSSASASLGSSVKLTCTLSSGHDNYIIAWHQQQPGKAPRYLMQVGAGGTYNKGSGVPHRFSGSSSGADRYLTISNLQSDDEADYYCETWDSKTVFGGGTTLTVL
Kd (COBRA HA J4): 15.2 nM | koff (COBRA HA J4): 0.000454 s⁻¹ | kon (COBRA HA J4): 30100 M⁻¹ s⁻¹ | Kd (COBRA HA TJ2): 0.45 nM | koff (COBRA HA TJ2): 5.44e-05 s⁻¹ | kon (COBRA HA TJ2): 121000 M⁻¹ s⁻¹
